The text below walks through data of patent US20120288494A1 (published 2012).

The labels stand for the following.
T1: human IL-12 p70 (UniProt P29460 23-328; P29459 23-219)
T1 chain 1: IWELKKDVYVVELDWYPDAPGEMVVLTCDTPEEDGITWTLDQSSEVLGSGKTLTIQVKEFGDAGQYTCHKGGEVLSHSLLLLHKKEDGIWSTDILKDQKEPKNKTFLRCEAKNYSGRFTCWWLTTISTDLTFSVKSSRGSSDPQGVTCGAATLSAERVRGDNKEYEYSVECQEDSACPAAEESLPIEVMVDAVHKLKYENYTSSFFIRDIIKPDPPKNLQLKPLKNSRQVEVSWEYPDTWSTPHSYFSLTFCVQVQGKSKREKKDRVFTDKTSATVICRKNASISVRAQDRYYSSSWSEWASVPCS
T1 chain 2: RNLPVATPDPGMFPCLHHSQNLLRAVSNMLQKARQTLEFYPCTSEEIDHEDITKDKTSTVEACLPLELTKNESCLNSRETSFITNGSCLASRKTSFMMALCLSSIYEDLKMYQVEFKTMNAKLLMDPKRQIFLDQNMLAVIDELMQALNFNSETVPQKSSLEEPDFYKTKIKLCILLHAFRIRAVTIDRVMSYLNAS

B1: Y61 (antibody, V domains shown)
VH: QVQLVQSGGGVVQPGRSLRLSCAASGFTFSSYGMHWVRQAPGKGLEWVAFIRYDGSNKYYADSVKGRFTISRDNSKNTLYLQMKSLRAEDTAVYYCKTHGSHDNWGQGTMVTVSS
VL: SYVLTQPPSVSGTPGQRVTISCSGGRSNIGSNTVKWYQQLPGTAPKLLIYGNDQRPSGVPDRFSGSKSGTSASLAITGVQAEDEADYYCQSYDRGTHPALLFGTGTKVTVLG
B2: J695 (antibody, V domains shown)
VH: B1 VH with Q6E, K84N
VL: B1 VL with S1Q, Y2S, T13A, G25S, G51Y, V79L, G95Y
B3: 103-14 (antibody, V domains shown)
VH: B1 VH
VL: SYVLTQPPSVSGTPGQRVTISCSGGRSNIGSNTVKWYQQLPGTAPKLLIYGNDQRPSGVPDRFSGSKSGTSASLAITGVQAEDEADYYCQSYDRGFTGSMVFGTGTKVTVL
B4: IL-12 (ligand)
chain 1: T1 chain 1
chain 2: T1 chain 2

The target in assay [1] is B4. Briefly: kinetic binding.
Assay [2] has as its target B4. Briefly: receptor binding assay (RBA).
Assay [3] has as its target T1, human IL-12 p70. Put plainly: receptor binding assay (RBA).
The target of assay [4] is T1, human IL-12 p70. Put plainly: kinetic binding.
The target in assay [5] is T1, human IL-12 p70. Briefly: receptor binding assay (RBA).
For a further assay, the target named is 78-34. Briefly: kinetic binding.
A further assay addresses Y61 L94Y. Briefly: kinetic binding.
For a further assay, the target named is Y61 L50Y. Put plainly: kinetic binding.

Positions count from the first letter of the chain named. Like-named read-outs stand apart in the source and are kept apart here.

In general, Kd refers to a measure of binding affinity in units of concentration. One may read the IC50 as the concentration needed to halve the response being measured. For the molecule B1, in the assay with IL-12 [1], binding was put at a Kd of 0.604 nM. The molecule further came in with an IC50 in the assay with IL-12 [2] of 0.016 nM.

In the assay with human IL-12 p70 [3], B2 showed an IC50 of 0.05 nM.

In general, koff refers to the first-order rate constant of dissociation. B3 yielded a koff with human IL-12 p70 [4] of 0.00067 s⁻¹. Besides, in the assay with human IL-12 p70 [5], the IC50 amounted to 0.04 nM.

As for B4, the koff in the assay with 78-34 turned out to be 0.0164 s⁻¹. Moreover, the figures for the Kd with Y61 L94Y and in the assay with Y61 L50Y were 0.341 nM and 0.138 nM, respectively.
